Four molecules from US20120093826A1 can be followed below.

Experiment [1] addresses human CADM1 (cell surface, on CADM1-expressing human tumour cells and tissues) (human) (UniProt Q9BY67). Nature of the experiment: cell-based or functional assay.
For experiment [2] the target is unchanged. Nature of the experiment: flow cytometry histogram on SKMEL28 cells, isotype control. In general terms: Flow cytometry measures light scatter and fluorescence of single cells or particles in a stream.
For experiment [3] the target is unchanged. As to the kind of experiment: flow cytometry histogram on 786-0 cells, isotype control.
For experiment [4] the target is unchanged. Nature of the experiment: flow cytometry on NCI-H69 cells expressing human CADM1.
Experiment [5] has the same target. Nature of the experiment: flow cytometry (FGMI) titration on SkMel28 melanoma cells; table under the plot.
Experiment [6] shares this target. As to the kind of experiment: flow cytometry histogram on 786-0 cells.
Experiment [7] has the same target. As to the kind of experiment: flow cytometry (FACS Geomean) titration on A549 non-small cell lung cancer cells; the table under the plot prints no unit, nM is the unit of the x axis 'Ab conc in nM'.
For experiment [8] the target is unchanged. Nature of the experiment: flow cytometry (FGMI) titration on 786-O renal cell carcinoma cells; table under the plot.
Experiment [9] shares this target. Nature of the experiment: flow cytometry histogram on SKMEL28 cells.
Experiment [10] shares this target. Nature of the experiment: flow cytometry (FACS Geomean) titration on A549 non-small cell lung cancer cells.
The target is the same in experiment [11]. As to the kind of experiment: flow cytometry (FACS Geomean) titration on SKOV3 ovarian cancer cells; the table under the plot prints no unit, nM is the unit of the x axis 'Ab conc in nM'.

Sequence of UniProt Q9BY67 (Q9BY67 45-442): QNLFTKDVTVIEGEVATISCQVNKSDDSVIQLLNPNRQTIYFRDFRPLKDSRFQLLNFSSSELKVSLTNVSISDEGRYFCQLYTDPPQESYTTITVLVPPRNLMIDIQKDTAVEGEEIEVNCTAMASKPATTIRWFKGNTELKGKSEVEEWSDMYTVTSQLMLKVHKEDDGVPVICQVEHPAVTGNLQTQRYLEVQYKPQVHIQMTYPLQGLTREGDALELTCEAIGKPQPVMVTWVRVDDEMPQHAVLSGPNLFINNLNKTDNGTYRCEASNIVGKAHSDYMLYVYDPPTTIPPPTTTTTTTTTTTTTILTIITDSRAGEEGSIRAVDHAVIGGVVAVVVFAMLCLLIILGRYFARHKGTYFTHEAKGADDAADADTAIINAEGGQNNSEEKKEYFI

On to Isotype Control (antibody), for which, in experiment [1], the % Specific Lysis: DMS79 (ADCC) was determined as 2.96% and the % Specific Lysis: NCI-H69 (ADCC) is 3.3%. The molecule further gave a number in the histogram legend box (name not given; axis FL2-H) in [2] of 10.5. The number in the histogram legend box (name not given; axis FL2-H) in experiment [3] was determined as 8.39.

B1: PTA021_A1 human monoclonal antibody (antibody, V domains shown)
VH: QITLKESGPTLVKPTQTLTLTCTFSGFSLNTSGVGVGWIRQPPGKALEWLALIYWDDDKRYSPSLKSRLTITKDTSKNQVVLTMTNMDPVDTATYYCAHRRVEWVALAGNWFDPWGQGTLVTVSS
VL: DIQMTQSPSSLSASVGDRVTITCRASQGISSWLAWYQQKPEKAPKSLIYGASSLQSGVPSRFSGSGSGTDFTLTISNLQPEDFATYYCQQYNSYPLTFGGGTKVEIK
Broadly, the EC50 is the concentration that produces a half-maximal response. In [1], B1 returned a % Specific Lysis: DMS79 (ADCC) of 37.8% and a % Specific Lysis: NCI-H69 (ADCC) of 24.6%. The EC50 in experiment [4] came out at 0.588 nM.

B2: PTA021_A2 human monoclonal antibody (antibody, V domains shown)
VH: QITLKESGPTLVKPTQTLTLTCTFSGFSLSTSGVGVGWIRQPPGKALEWLALIYWDDDKRYSPSLKSRLTITKDTSKNQVVLTMTNMDPVDTAIYYCAHRRVEWFALAGNWFDPWGQGSLVTVSS
VL: DIQMTQSPSSLSASVGDRVTITCRASQGISSWLAWYQQKPEKAPKSLIYAASSLQSGVPSRFSGSGSGTDFTLTISSLQPEDFATYYCQQYNSYPLTFGGGTKVEIK
In experiment [1], B2 came in with a % Specific Lysis: DMS79 (ADCC) of 34.7% and a % Specific Lysis: NCI-H69 (ADCC) of 15.9%. Further, the 50% effective concentration (EC50) in experiment [4] worked out at 0.667 nM.

B3: PTA021_A3 human monoclonal antibody (antibody, V domains shown)
VH: QITLKESGPTLVKPTQTLTLTCTFSGFSLSTSGVGVGWIRQPPGKALEWLALIYWDDDKRYSPSLKSRLTITKDTSKNQVVLTMTNMDPVDTATYYCAHRRVEWVTLAGNWFDPWGQGTLVTVSS
VL: DIQMTQSPSSLSASVGDRVTITCRASQGISSWLAWYQQKPEKAPKSLIYAASSLQSGVPSRFSGSGSGTDFTLTISNLQPEDFATYYCQQYNSYPLTFGGGTKVEIK
As usually defined, the EC50 (read off the curve) is the midpoint of the concentration-response curve. Low values mean a more potent agent, high ones a less potent agent. On to B3, for which the EC50 in experiment [5] came out at 4.42 nM; in [4] it was 0.674 nM; in experiment [7], 3.65 nM; in [8], 3.25 nM; in experiment [11], 12.6 nM. Besides, the number in the histogram legend box (name not given; axis FL2-H) was 42.6 in experiment [6] and 25.9 in experiment [9]. The % Specific Lysis: DMS79 (ADCC) in [1] was 61%. The molecule also gave a % Specific Lysis: NCI-H69 (ADCC) in [1] of 29.8%. The same molecule yielded a 50% effective concentration (EC50 (read off the curve)) in experiment [10] of 4 nM.
